The values that follow come from patent US20220125919A1.

For experiment [1], the target named is EBV LMP2A epitope … presented by HLA-A*0201 (human). The experiment in a line: cell-based or functional assay.
The target in experiment [2] is HCMV pp65 epitope … presented by HLA-A*0201 (human). Nature of the experiment: cell-based or functional assay.

Turning to “TCR that recognizes peptide … presented by A*0201 (PDB #3REV)”, in experiment [1], the luciferase induction relative to uninfected controls, short cassette design 9AA came out at 12; the luciferase induction relative to uninfected controls, short cassette design 17AA amounted to 10.3; the luciferase induction relative to uninfected controls, short cassette design 25AA was 14.6; the luciferase induction relative to uninfected controls, short cassette design DPP came out at 1.1. This substance showed a luciferase induction relative to uninfected controls, short cassette design RR in experiment [1] of 8.5.

In the case of “TCR that recognizes peptide … presented by A*0201 (PDB #5D2N)”, in experiment [2], the luciferase induction relative to uninfected controls, short cassette design 9AA was found to be 33.6; the luciferase induction relative to uninfected controls, short cassette design 17AA turned out to be 42.8; the luciferase induction relative to uninfected controls, short cassette design 25AA worked out at 42.3; the luciferase induction relative to uninfected controls, short cassette design DPP came to 0.9. For the same substance, in experiment [2], the luciferase induction relative to uninfected controls, short cassette design RR stood at 21.7; the luciferase induction, in vitro T cell activation assay, short cassette design AAY worked out at 24.5; the luciferase induction, in vitro T cell activation assay, targeting-sequence short cassette design A was 32.5; the luciferase induction, in vitro T cell activation assay, targeting-sequence short cassette design B is 31.8. In experiment [2], this substance displayed a luciferase induction, in vitro T cell activation assay, targeting-sequence short cassette design C of 29.1; a luciferase induction, in vitro T cell activation assay, targeting-sequence short cassette design D of 29.1; a luciferase induction, in vitro T cell activation assay, targeting-sequence short cassette design E of 28.4; a luciferase induction, in vitro T cell activation assay, targeting-sequence short cassette design F of 20.4. Moreover, in experiment [2], the luciferase induction, in vitro T cell activation assay, targeting-sequence short cassette design G was 35; the luciferase induction, in vitro T cell activation assay, targeting-sequence short cassette design H was found to be 30.3; the luciferase induction, in vitro T cell activation assay, targeting-sequence short cassette design I worked out at 22.5; the luciferase induction, in vitro T cell activation assay, targeting-sequence short cassette design J was found to be 38.1.
